Here are results for seven molecules from patent US20090136526A1 (Seagen, published 2009).

In experiment [1] the target is T1, CD19 on CD19-positive tumor cell lines (human, UniProt P15391 20-556).
T1 sequence (looked up): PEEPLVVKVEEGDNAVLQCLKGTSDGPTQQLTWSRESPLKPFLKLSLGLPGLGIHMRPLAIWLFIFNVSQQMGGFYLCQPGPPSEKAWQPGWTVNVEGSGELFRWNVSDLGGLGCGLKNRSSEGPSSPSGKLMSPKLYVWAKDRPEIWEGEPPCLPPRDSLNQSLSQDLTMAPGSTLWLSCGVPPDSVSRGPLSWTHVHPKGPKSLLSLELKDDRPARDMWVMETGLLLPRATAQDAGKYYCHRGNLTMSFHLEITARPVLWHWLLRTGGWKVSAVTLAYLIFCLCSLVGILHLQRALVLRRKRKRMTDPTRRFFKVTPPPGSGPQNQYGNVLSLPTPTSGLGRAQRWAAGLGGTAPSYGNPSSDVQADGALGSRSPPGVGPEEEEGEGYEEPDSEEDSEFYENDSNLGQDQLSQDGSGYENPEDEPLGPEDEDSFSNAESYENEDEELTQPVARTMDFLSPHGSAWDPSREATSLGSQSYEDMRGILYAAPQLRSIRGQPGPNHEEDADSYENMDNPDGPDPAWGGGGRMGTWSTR
Description: cell-based or functional assay.

In experiment [2] the target is CD19 on CD19-positive tumor cell lines (human) (UniProt P15391). Description: cell-based or functional assay.

hBU12-vcMMAE (antibody) showed an internalization kinetics by FACS, CD21 low Ramos cells in experiment [1] of 50%.

In the case of hBU12 (antibody), in experiment [1], the internalization kinetics by FACS, CD21 low Ramos cells came out at 50%.

Turning to LT19 (antibody), in experiment [1], the IC50 (ng/mL) of anti-CD19 antibody linked with 2°-ADC, cell viability (resazurin, 96 h), CA46 cells was found to be 4 ng/mL; the IC50 (ng/mL) of anti-CD19 antibody linked with 2°-ADC, cell viability (resazurin, 96 h), HS Sultan cells turned out to be 112 ng/mL; the IC50 (ng/mL) of anti-CD19 antibody linked with 2°-ADC, cell viability (resazurin, 96 h), HT cells came out at 111 ng/mL; the IC50 (ng/mL) of anti-CD19 antibody linked with 2°-ADC, cell viability (resazurin, 96 h), MC 116 cells amounted to 192 ng/mL. In experiment [1], the IC50 (ng/mL) of anti-CD19 antibody linked with 2°-ADC, cell viability (resazurin, 96 h), Ramos cells came to 1 ng/mL and the IC50 (ng/mL) of anti-CD19 antibody linked with 2°-ADC, cell viability (resazurin, 96 h), Toledo cells is 584 ng/mL.

For B-C3 (antibody), in experiment [1], the IC50 (ng/mL) of anti-CD19 antibody linked with 2°-ADC, cell viability (resazurin, 96 h), CA46 cells worked out at 17 ng/mL; the IC50 (ng/mL) of anti-CD19 antibody linked with 2°-ADC, cell viability (resazurin, 96 h), HS Sultan cells turned out to be 234 ng/mL; the IC50 (ng/mL) of anti-CD19 antibody linked with 2°-ADC, cell viability (resazurin, 96 h), MC 116 cells stood at 195 ng/mL; the IC50 (ng/mL) of anti-CD19 antibody linked with 2°-ADC, cell viability (resazurin, 96 h), Ramos cells is 13 ng/mL. This molecule also displayed an IC50 (ng/mL) of anti-CD19 antibody linked with 2°-ADC, cell viability (resazurin, 96 h), Toledo cells in experiment [1] of 359 ng/mL.

In experiment [1], HIB19 (antibody) yielded an IC50 (ng/mL) of anti-CD19 antibody linked with 2°-ADC, cell viability (resazurin, 96 h), CA46 cells of 1 ng/mL; an IC50 (ng/mL) of anti-CD19 antibody linked with 2°-ADC, cell viability (resazurin, 96 h), HS Sultan cells of 97 ng/mL; an IC50 (ng/mL) of anti-CD19 antibody linked with 2°-ADC, cell viability (resazurin, 96 h), HT cells of 1000 ng/mL; an IC50 (ng/mL) of anti-CD19 antibody linked with 2°-ADC, cell viability (resazurin, 96 h), MC 116 cells of 188 ng/mL. In experiment [1], this molecule gave an IC50 (ng/mL) of anti-CD19 antibody linked with 2°-ADC, cell viability (resazurin, 96 h), Ramos cells of 1 ng/mL and an IC50 (ng/mL) of anti-CD19 antibody linked with 2°-ADC, cell viability (resazurin, 96 h), Toledo cells of 1000 ng/mL.

B1: cBU12 (antibody, V domains shown)
VH: QVTLKESGPGILQPSQTLSLTCSFSGFSLSTSGMGVGWIRQPSGKGLEWLAHIWWDDDKRYNPALKSRLTISKDTSSNQVFLKIASVDTADTAAYYCARMELWSYYFDYWGQGTTLTVSS
VL: ENVLTQSPAIMSASPGEKVTMTCSASSSVSYMHWYQQKSSTSPKLWIYDTSKLASGVPGRFSGSGSGNSHFLTISSMEAEDVATYYCFQGSVYPFTFGSGTKLEIKR
As to B1, in experiment [1], the “IC50 (ng/mL) of anti-CD19 antibody linked with 2°-ADC, cell viability (resazurin, 96 h), CA46 cells” value was 7 ng/mL; the “IC50 (ng/mL) of anti-CD19 antibody linked with 2°-ADC, cell viability (resazurin, 96 h), HS Sultan cells” value is 100 ng/mL; the “IC50 (ng/mL) of anti-CD19 antibody linked with 2°-ADC, cell viability (resazurin, 96 h), HT cells” value is 238 ng/mL; the “IC50 (ng/mL) of anti-CD19 antibody linked with 2°-ADC, cell viability (resazurin, 96 h), MC 116 cells” value amounted to 186 ng/mL. In experiment [1], the “IC50 (ng/mL) of anti-CD19 antibody linked with 2°-ADC, cell viability (resazurin, 96 h), Ramos cells” value came out at 5 ng/mL and the “IC50 (ng/mL) of anti-CD19 antibody linked with 2°-ADC, cell viability (resazurin, 96 h), Toledo cells” value was roughly 1000 ng/mL.

B2: SJ25-C1 (antibody, from another filing, V domains shown)
VH: EVKLQQSGAELVRPGSSVKISCKASGYAFSSYWMNWVKQRPGQGLEWIGQIYPGDGDTNYNGKFKGQATLTADKSSSTAYMQLSGLTSEDSAVYFCARKTISSVVDFYFDYWGQGTTVTVSS
VL: DIELTQSPKFMSTSVGDRVSVTCKASQNVGTNVAWYQQKPGQSPKPLIYSATYRNSGVPDRFTGSGSGTDFTLTITNVQSKDLADYFCQQYNRYPYTSGGGTKLEI
In experiment [2], B2 showed an IC50 (ng/mL) of anti-CD19 antibody linked with 2°-ADC, cell viability (resazurin, 96 h), CA46 cells of 4 ng/mL; an IC50 (ng/mL) of anti-CD19 antibody linked with 2°-ADC, cell viability (resazurin, 96 h), HS Sultan cells of 150 ng/mL; an IC50 (ng/mL) of anti-CD19 antibody linked with 2°-ADC, cell viability (resazurin, 96 h), MC 116 cells of 200 ng/mL; an IC50 (ng/mL) of anti-CD19 antibody linked with 2°-ADC, cell viability (resazurin, 96 h), Ramos cells of 3 ng/mL. In addition, the IC50 (ng/mL) of anti-CD19 antibody linked with 2°-ADC, cell viability (resazurin, 96 h), Toledo cells in experiment [2] was 512 ng/mL.
